The results in this text go back to patent US11352401.

This assay addresses T1, HLA-A*01 (human).
T1 construct: MHC monomer made peptide-receptive by UV cleavage of a UV-sensitive ligand; also called peptide-receptive MHC class I monomer
Kind of assay: UV peptide-exchange ELISA; ++++ = yield >75%. The source says: Candidate peptides for T cell based therapies according to the present invention were further tested for their MHC binding capacity (affinity). The individual peptide-MHC complexes were produced by UV-ligand exchange, where a UV-sensitive peptide is cleaved upon UV-irradiation, and exchanged with the peptide of interest as analyzed. Only peptide candidates that can effectively bind and stabilize the peptide-receptive MHC molecules prevent dissociation of the MHC complexes. To determine the yield of the exchange reaction, an ELISA was performed based on the detection of the light chain (β2m) of stabilized MHC complexes. The assay was performed as generally described in Rodenko et al. (Rodenko et al., 2006).
96 well MAXISorp plates (NUNC) were coated over night with 2 ug/ml streptavidin in PBS at room temperature, washed 4× and blocked for 1 h at 37° C. in 2% BSA containing blocking buffer. […] Peptide-MHC monomers of the UV-exchange reaction were diluted 100-fold in blocking buffer. Samples were incubated for 1 h at 37° C., washed four times, incubated with 2 ug/ml HRP conjugated anti-β2m for 1h at 37° C., washed again and detected with TMB solution that is stopped with […]. Absorption was measured at 450 nm.
In general terms: ELISA stands for enzyme-linked immunosorbent assay.

With NLDAVHDITVAY [NLDAVHDITVAY (SEQ ID NO: 423)], the peptide exchange yield was more than 75%.
Regarding FSDNDKLYLY [FSDNDKLYLY (SEQ ID NO: 407)], the peptide exchange yield was more than 75%.
Then GTEFTTILY [GTEFTTILY (SEQ ID NO: 148)], with more than 75%; and GTEFTTVLY [GTEFTTVLY (SEQ ID NO: 149)], with more than 75%; and ATSKFMEFY [ATSKFMEFY (SEQ ID NO: 137)], with more than 75%.
The figure for TTDFPSESSFEY [TTDFPSESSFEY (SEQ ID NO: 443)] is more than 75%.
The figure for MIDVTKSYY [MIDVTKSYY (SEQ ID NO: 422)] is more than 75%.
Regarding QTDDTWRTEY [QTDDTWRTEY (SEQ ID NO: 435)], the peptide exchange yield is more than 75%.
The molecule LMDRPIFY [LMDRPIFY (SEQ ID NO: 157)] registered a peptide exchange yield of more than 75%.
Then LSDLLKQGY [LSDLLKQGY (SEQ ID NO: 158)], with more than 75%.
Then QTDCAPNNGY [QTDCAPNNGY (SEQ ID NO: 434)], with more than 75%; and LLDTAQKNLY [LLDTAQKNLY (SEQ ID NO: 416)], with more than 75%; and ILDEVIMGY [ILDEVIMGY (SEQ ID NO: 412)], with more than 75%.
In turn, RLDTPLYFSY [RLDTPLYFSY (SEQ ID NO: 169)] displayed a peptide exchange yield of more than 75%.
RSDPVTLNVLY [RSDPVTLNVLY (SEQ ID NO: 171)] showed a peptide exchange yield of more than 75%.
The figure for ASEDSVLLY [ASEDSVLLY (SEQ ID NO: 135)] is more than 75%; for SADDIRGIQSLY [SADDIRGIQSLY (SEQ ID NO: 174)] it is more than 75%; for YSDDGQKWTVY [YSDDGQKWTVY (SEQ ID NO: 450)] it is more than 75%.
The figure for YSDSLVQKGY [YSDSLVQKGY (SEQ ID NO: 451)] is more than 75%.
The figure for LTEDKETLQY [LTEDKETLQY (SEQ ID NO: 420)] is more than 75%.
NTEGLHHLY [NTEGLHHLY (SEQ ID NO: 430)] returned a peptide exchange yield of more than 75%.
The figure for NTEDSSMSGYLY [NTEDSSMSGYLY (SEQ ID NO: 429)] is more than 75%; for NSELSCQLY [NSELSCQLY (SEQ ID NO: 428)] it is more than 75%; for GTELLSLVY [GTELLSLVY (SEQ ID NO: 150)] it is more than 75%.
Take GSDHQSPSSSSY [GSDHQSPSSSSY (SEQ ID NO: 410)]: the peptide exchange yield is more than 75%.
TLDSALNAASYY [TLDSALNAASYY (SEQ ID NO: 441)] gave a peptide exchange yield of more than 75%.
The figure for RSDDTAVYY [RSDDTAVYY (SEQ ID NO: 170)] is more than 75%.
The figure for NLDIIQQEY [NLDIIQQEY (SEQ ID NO: 425)] is more than 75%.
The molecule FVDPLVTNY [FVDPLVTNY (SEQ ID NO: 409)] gave a peptide exchange yield of more than 75%.
Then YLDRGTGNVSFY [YLDRGTGNVSFY (SEQ ID NO: 449)], with more than 75%; and LSDTSVIQFY [LSDTSVIQFY (SEQ ID NO: 159)], with more than 75%; and NSDEQKITEMVY [NSDEQKITEMVY (SEQ ID NO: 427)], with more than 75%.
Then LLDPNPHMY [LLDPNPHMY (SEQ ID NO: 155)], with more than 75%; and TSDFSRFTNY [TSDFSRFTNY (SEQ ID NO: 442)], with more than 75%.
The molecule DSDSCHFNY [DSDSCHFNY (SEQ ID NO: 138)] gave a peptide exchange yield of more than 75%.
The figure for LLEDKHFQSY [LLEDKHFQSY (SEQ ID NO: 417)] is more than 75%; for AAEIGDKSWLY [AAEIGDKSWLY (SEQ ID NO: 134)] it is more than 75%; for RTEFNLNQY [RTEFNLNQY (SEQ ID NO: 173)] it is more than 75%.
Then VTAQVVGTERY [VTAQVVGTERY (SEQ ID NO: 446)], with more than 75%.
Molecule QTDHPQPILDRY [QTDHPQPILDRY (SEQ ID NO: 168)] gave a peptide exchange yield of more than 75%.
The figure for QIDTGENLY [QIDTGENLY (SEQ ID NO: 433)] is more than 75%; for GTVYEDLRY [GTVYEDLRY (SEQ ID NO: 411)] it is more than 75%.
The figure for STDGKHWWEY [STDGKHWWEY (SEQ ID NO: 437)] is more than 75%; for ISDRYYTALY [ISDRYYTALY (SEQ ID NO: 413)] it is more than 75%; for LTELLERAAFY [LTELLERAAFY (SEQ ID NO: 421)] it is more than 75%.
Then QTETGTPYMLY [QTETGTPYMLY (SEQ ID NO: 436)], with more than 75%; and LSELKPMSY [LSELKPMSY (SEQ ID NO: 419)], with more than 75%.
In turn, YVDAVLGKGHQY [YVDAVLGKGHQY (SEQ ID NO: 452)] returned a peptide exchange yield of more than 75%.
The figure for NTSDMMGRMSY [NTSDMMGRMSY (SEQ ID NO: 431)] is more than 75%.
